Test results: patent US20110002929A1 (Ablynx, published 2011)

T1: human RANK-L (human, UniProt O14788 140-317, limits assumed)
T1 sequence (looked up): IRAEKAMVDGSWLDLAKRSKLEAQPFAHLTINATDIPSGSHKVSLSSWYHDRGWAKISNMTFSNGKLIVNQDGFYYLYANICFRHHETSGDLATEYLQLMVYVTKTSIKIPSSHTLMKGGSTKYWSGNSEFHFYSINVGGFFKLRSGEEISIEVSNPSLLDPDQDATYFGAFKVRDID

T2: mouse RANK-L (mouse, UniProt O35235 158-316, limits assumed)
T2 construct: also called murine RANK-L
T2 sequence (looked up): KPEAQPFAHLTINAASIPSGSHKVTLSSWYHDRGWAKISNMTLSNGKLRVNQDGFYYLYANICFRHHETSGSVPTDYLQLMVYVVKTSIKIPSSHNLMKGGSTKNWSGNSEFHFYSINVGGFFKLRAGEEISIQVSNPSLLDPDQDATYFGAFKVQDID

T3: human RANK-L, full length, membrane-bound, expressed on HEK293T cells (human, UniProt O14788 1-317)
T3 construct: whole, on cells; also called hRANK-L
T3 sequence (looked up): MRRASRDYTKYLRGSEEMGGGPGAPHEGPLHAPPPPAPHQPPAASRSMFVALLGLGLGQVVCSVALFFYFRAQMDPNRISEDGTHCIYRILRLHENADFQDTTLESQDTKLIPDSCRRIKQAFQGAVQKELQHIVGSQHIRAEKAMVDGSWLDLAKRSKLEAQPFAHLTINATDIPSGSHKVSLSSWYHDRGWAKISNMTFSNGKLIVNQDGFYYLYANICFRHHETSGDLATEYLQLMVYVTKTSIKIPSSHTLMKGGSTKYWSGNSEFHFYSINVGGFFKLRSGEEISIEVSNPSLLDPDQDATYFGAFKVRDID

T4: cynomolgus RANK-L, full length, membrane-bound, expressed on HEK293T cells (cynomolgus monkey, UniProt A0A7N9DBU4 1-317)
T4 construct: whole, on cells; also called cyno RANK-L
T4 sequence: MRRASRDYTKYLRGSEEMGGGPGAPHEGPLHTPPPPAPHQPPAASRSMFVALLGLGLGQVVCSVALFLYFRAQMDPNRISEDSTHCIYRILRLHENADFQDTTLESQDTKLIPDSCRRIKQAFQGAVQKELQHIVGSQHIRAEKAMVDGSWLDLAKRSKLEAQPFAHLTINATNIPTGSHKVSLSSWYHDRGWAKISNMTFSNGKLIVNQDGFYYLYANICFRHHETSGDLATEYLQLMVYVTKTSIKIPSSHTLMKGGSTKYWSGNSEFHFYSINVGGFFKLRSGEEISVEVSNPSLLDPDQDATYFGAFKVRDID

T5: CD40 ligand (UniProt P29965 113-261, limits assumed)
T5 sequence (looked up): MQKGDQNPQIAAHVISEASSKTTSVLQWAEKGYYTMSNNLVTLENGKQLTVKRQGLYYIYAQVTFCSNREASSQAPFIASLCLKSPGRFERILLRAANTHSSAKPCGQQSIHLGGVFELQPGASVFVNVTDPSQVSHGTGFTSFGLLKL


Legend:
human RANK-L [1] = target: T1, human RANK-L; experiment: cell-based or functional assay
mouse RANK-L [2] = target: T2, mouse RANK-L; experiment: ELISA, set-up as for human RANK-L
Procedure, shortened: (§1)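 Nanobodies at 500 nM to 160 pM in 1% casein/PBS incubated 1 h at room temperature; binding detected via anti-myc then anti-mouse-HRP with TMB, OD 450 nm.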

human RANK-L [3] = target: T1, human RANK-L; experiment: ELISA (ED50), biotin-hRANK-L on neutravidin
Procedure, shortened: as §1

human RANK-L [4] = target: T1, human RANK-L; experiment: AlphaScreen, biotin-hRANK-L / RANK-huFc beads
Method: To this mixture, the RANK acceptor beads and the streptavidin donor beads were added and further incubated for 1 hour at room temperature. Fluorescence was measured by reading plates on the EnVision Multilabel Plate Reader (Perkin Elmer) using an excitation wavelength of 680 nm and an emission wavelength of 520 nm.

human RANK-L [5] = target: T1, human RANK-L; experiment: AlphaScreen, biotin-hRANK-L / RANK-huFc beads; remark: listed apart in the source
human RANK-L [6] = target: T1, human RANK-L; experiment: FMAT, ALEXA647-hRANK-L / RANK on HEK293T cells
Method: HEK293T cells were transiently transfected with the plasmid expressing full length RANK using Fugene6 as described in example 3. After 24 hours aliquots of 60 μl (7.5×10³ cells) were plated into FMAT system 384-well plates (PE Biosystems, CA, US) and allowed to adhere for 24 h. After overnight adherence, culture supernatant was removed by gently tapping the plate. […] The plates were scanned after 10 hours of incubation. Cell surface fluorescence was measured by 8200 Cellular Detection System (Applied Biosystems, Foster City, Calif., US) which is a fluorescence macro-confocal, biological binding event analyzer that enables mix-and-read assays with live cells.

[7] = target: T3, human RANK-L, full length, …; experiment: FACS, HEK293T with human RANK-L, 16 pM Nanobody
Method: (§2) Human embryonic kidney cells (HEK293T) were grown in Dulbecco's modified Eagles's medium supplemented with 10% fetal bovine serum (FBS), […] L-glutamine, 0.4 mM sodium pyruvate. […] After 48 hours, transfected cells were subjected to FACS analysis. […] Then cells were washed three times with FACS buffer. Bound Nanobodies were detected by subsequent incubations of a primary mouse anti Myc antibody (30 min at 4° C. (2 μg/ml)) and a second incubation with goat anti mouse-Phycoerythrin (PE) (Jackson Laboratories) for another 30 min at 4° C. Finally, after washing, the cells were resuspended in PBS+10% FBS+TO-PRO®-3 (5 nM) (Molecular Probes®, Invitrogen, Merelbeke, Belgium) and cell surface fluorescence expressed as mean PE fluorescence, was measured using flow cytometry.

[8] = target: T3, human RANK-L, full length, …; experiment: FACS, HEK293T with human RANK-L, 80 pM Nanobody
Method: as §2

[9] = target: T3, human RANK-L, full length, …; experiment: FACS, HEK293T with human RANK-L, 3.2 pM Nanobody
Method: as §2

[10] = target: T3, human RANK-L, full length, …; experiment: FACS, HEK293T with human RANK-L, 400 pM Nanobody
Method: as §2

[11] = target: T3, human RANK-L, full length, …; experiment: FACS, HEK293T with human RANK-L, 2000 pM Nanobody
Method: as §2

[12] = target: T4, cynomolgus RANK-L, full length, …; experiment: FACS, HEK293T with cynomolgus RANK-L, 400 pM Nanobody
Method: as §2

[13] = target: T4, cynomolgus RANK-L, full length, …; experiment: FACS, HEK293T with cynomolgus RANK-L, 2000 pM Nanobody
Method: as §2

TNFα [14] = target: T6, TNFα (UniProt P01375 77-233); experiment: competition ELISA on RANK-L-coated plates, 1 nM Nanobody preincubated with the ligand
T6 construct: also called TNF-alpha

CD40 ligand = target: T5, CD40 ligand; experiment: as above
TRAIL [15] = target: T7, TRAIL (UniProt P50591 114-281, limits assumed); experiment: as above
T7 construct: also called tumor necrosis factor-related apoptosis inducing ligand

mouse RANK-L [16] = target: T2, mouse RANK-L; experiment: ELISA (ED50) on murine RANK-L, set-up as for human RANK-L
Method: Therefore 2 μg/ml neutravidin was coated overnight at 4° C. The plates were washed 5 times with 300 μl PBS and then blocked with […] 1% casein/PBS for 2 hours at room temperature. […] After extensive washing with PBS, varying concentrations of Nanobodies starting from 500 nM to 160 pM diluted in 1% casein/PBS were added to the wells and the plates were incubated for 1 hour at room temperature. Bound Nanobodies were detected by subsequent incubations of a primary mouse anti-myc antibody and a secondary anti mouse-HRP conjugate (DAKO, Glostrup, Denmark) and using TMB-H2O2 (Pierce, Rockford, Ill., USA) substrate cocktail. The reaction was stopped with H₂SO₄ and the OD was read at 450 nm.

human RANK-L [17] = target: T1, human RANK-L; experiment: AlphaScreen, biotin-hRANK-L / RANK-huFc beads; remark: listed apart in the source
human RANK-L [18] = target: T1, human RANK-L; experiment: FMAT, ALEXA647-hRANK-L / RANK on HEK293T cells; remark: listed apart in the source
TNFα [19] = target: T6, TNFα; experiment: competition ELISA on human RANK-L-coated plates, 100 pM Nanobody preincubated with the ligand
TRAIL [20] = target: T7, TRAIL; experiment: as above
mouse RANK-L [21] = target: T2, mouse RANK-L; experiment: as above

T7 sequence (P50591 114-281 limits assumed): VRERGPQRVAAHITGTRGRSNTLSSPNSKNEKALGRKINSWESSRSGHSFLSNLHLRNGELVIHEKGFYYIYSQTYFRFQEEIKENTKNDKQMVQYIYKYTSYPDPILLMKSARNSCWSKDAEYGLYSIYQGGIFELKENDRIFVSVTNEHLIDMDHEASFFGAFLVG
T6 sequence (P01375 77-233 limits assumed): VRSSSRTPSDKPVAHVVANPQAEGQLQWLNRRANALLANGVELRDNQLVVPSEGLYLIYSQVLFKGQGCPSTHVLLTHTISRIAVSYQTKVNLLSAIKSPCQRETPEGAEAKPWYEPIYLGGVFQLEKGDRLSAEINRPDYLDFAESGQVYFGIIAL

| Binder | RANK-L induced NF-kappaB activation (luciferase reporter, HEK293T cells), IC50 (human RANK-L [1]) [nM] | EC50 (human RANK-L [3]) [nM] | IC50 (human RANK-L [4]) [nM] | IC50 (human RANK-L [5]) [nM] | IC50 (human RANK-L [17]) [nM] | IC50 (human RANK-L [18]) [nM] | binding result (TNFα [19]) | binding result (TRAIL [20]) | binding result (mouse RANK-L [21]) | further results |
| --- | --- | --- | --- | --- | --- | --- | --- | --- | --- | --- |
| RANKL15 (VHH, not shown: small tags and cut ends) VHH: EVQLVESGGGLVQAGGSLRLSCAAAGGTFRNYVMGWFRQAPGKEREFVTAISTGGSWTGYVDSVKDRFTISRDNTKNTVYLQMASLKPEDTAVYYCAATTPATTYLPRSERQYDYWGQGTQVTVSS | 10 | 0.266 | 0.283 | 0.572 |  |  |  |  |  | binding result (mouse RANK-L [2]): no binding (tested: 500 nM to 160 pM); IC50 (human RANK-L [6]): 0.534 nM; PE mean fluorescence [7]: 250; PE mean fluorescence [8]: 715; PE mean fluorescence [9]: 124; PE mean fluorescence [10]: 2640; PE mean fluorescence [11]: 7720; PE mean fluorescence [12]: 3410; PE mean fluorescence [13]: 11000; binding result (TNFα [14]): no binding (tested: approximately 100 nM); binding result (CD40 ligand): no binding (tested: approximately 100 nM); binding result (TRAIL [15]): no binding (tested: approximately 100 nM) |
| RANKL3 (VHH, not shown: small tags and cut ends) VHH: EVQLVESGGKLVQAGGSLRLSCAVSGRTSSIYNMAWFRQGPGKGRESVGRIYWSDDNTYYADSVKGRFTISRDNATNTVYLQMNSLKPEDTAVYYCAGKTTKWSLEYDYWGQGTQVTVSS | 8.32 | 0.568 | 0.497 | 0.474 |  |  |  |  |  | EC50 (mouse RANK-L [16]): ~0.6 nM |
| RANKL001p (VHH, PEG (3-Maleimidoproprionamide, 1,3-bis(Methoxy poly (ethylene glycol) modified 2-glycerol), Average MW 40,000) coupled after DTT reduction; the entry ends in GGGC, Bivalent pegylated humanized Nanobody; also called RANKL13hum5-9GS-RANKL13hum5-PEG) EVQLVESGGGLVQPGGSLRLSCAASGFTFSSYPMGWFRQAPGKGREFVSSITGSGGSTYYADSVKGRFTISRDNAKNTLYLQMNSLRPEDTAVYYCAAYIRPDTYLSRDYRKYDYWGQGTLVTVSSGGGGSGGGSEVQLVESGGGLVQPGGSLRLSCAASGFTFSSYPMGWFRQAPGKGREFVSSITGSGGSTYYADSVKGRFTISRDNAKNTLYLQMNSLRPEDTAVYYCAAYIRPDTYLSRDYRKYDYWGQGTLVTVSSGGGC |  |  |  |  | 0.049 | 0.041 | no binding (tested: 10 nM) | no binding (tested: 10 nM) | no binding (tested: 10 nM) |  |
| RANKL003p (VHH, PEG (3-Maleimidoproprionamide, 1,3-bis(Methoxy poly (ethylene glycol) modified 2-glycerol), Average MW 40,000) coupled after DTT reduction; the entry ends in GGGC, Bivalent pegylated humanized Nanobody; also called RANKL3p; RANKL18hum6-30GS-RANKL18hum6-PEG) EVQLVESGGGLVQPGGSLRLSCAASGRTFSRSAMGWFRQAPGKGREFVGFITGSGGTTYYADSVKGRFTISRDNAQNPVYLQMNSLRPEDTAVYYCAVYRRTYISSTYSESSEYDYWGQGTLVTVSSGGGGSGGGGSGGGGSGGGGSGGGGSGGGGSEVQLVESGGGLVQPGGSLRLSCAASGRTFSRSAMGWFRQAPGKGREFVGFITGSGGTTYYADSVKGRFTISRDNAQNPVYLQMNSLRPEDTAVYYCAVYRRTYISSTYSESSEYDYWGQGTLVTVSSGGGC |  |  |  |  | 0.025 | 0.038 | no binding (tested: 10 nM) | no binding (tested: 10 nM) | no binding (tested: 10 nM) |  |
